Columns and labels:
Conditions in all cases: one partner purified
[1] = target: T1, human programmed cell death protein 1 C93S (aa 24-167) (Homo sapiens, UniProt Q15116, C93S); assay: SPR; BreviA on Carterra LSA: Fab from ammonium sulfate precipitate of Brevibacillus supernatant immobilised on NiHC200M sensor; hPD-1 (1-1024 nM) or mPD-1-Fc (4-1024 nM) as analyte, fourfold dilution series, no regeneration; HBS-EP pH 7.4, 25 °C; medians of spots
T1 construct: residues of the TEV site may be left after cleavage; also called hPD-1; human PD-1; source: Expi293F, transfected, purified (Protein A, TEV cleavage of Fc, Protein A + Ni-Sepharose, SEC; monomer fractions)

[2] = target: T2, mouse programmed cell death protein 1 Fc fusion protein (mPD-1-Fc), mPD-1 C60S (aa 25-167) (Mus musculus, UniProt Q02242, stabilised); assay: SPR; Carterra LSA; Fab from the ammonium sulfate precipitate of the culture supernatant immobilised on a NiHC200M chip; hPD-1 (1-1024 nM) or mPD-1-Fc (4-1024 nM) as analyte, fourfold dilution series, no regeneration; HBS-EP pH 7.4, 25 °C; medians over the spots of a construct, KD = koff/kon
T2 construct: not cleaved; source: Expi293F, purified (Protein A, SEC; dimeric fraction); not shown: Fc (human), C-terminal, kept
Summary of the method: (§1)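 On a Carterra LSA at 25 °C, duplicate captures of Fabs were made on a NiHC200M chip; the Fabs came from Brevibacillus culture supernatants, were precipitated with ammonium sulfate and were redissolved in HBS-EP. Fourfold series of human PD-1 (1–1024 nM) or mouse PD-1-Fc (4–1024 nM) were passed over without regeneration, with 10 min association and 5 min dissociation. Binders that were not confirmed were assigned kon 10^3 […] and koff 10^−2 s^−1. The kdka model, run with slow- or fast-dissociation settings and keeping the better fit, gave the rates, and KD was taken as koff/kon from the median values for each construct.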

[3] = target: T3, human programmed cell death protein 1 (hPD-1) C93S (aa 24-167) (Homo sapiens, UniProt Q15116, C93S); assay: as above
T3 construct: made as a fusion with a TEV site and human Fc; the Fc was cut off with TEV protease; source: Expi293F, purified (Protein A, TEV cleavage of Fc, SEC; monomer fractions); not shown: Fc (human), C-terminal, cleaved
Summary of the method: as §1

[4] = target: T4, mouse programmed cell death protein 1 C60S (aa 25-167) Fc fusion protein (Mus musculus, UniProt Q02242, stabilised); assay: SPR; BreviA on Carterra LSA: Fab from ammonium sulfate precipitate of Brevibacillus supernatant immobilised on NiHC200M sensor; hPD-1 (1-1024 nM) or mPD-1-Fc (4-1024 nM) as analyte, fourfold dilution series, no regeneration; HBS-EP pH 7.4, 25 °C; medians of spots
T4 construct: the Fc was not cleaved; also called mPD-1-Fc; mPD-1 Fc fusion protein; source: Expi293F, transfected, purified (Protein A, SEC; dimeric fraction)

T3 sequence (Q15116 24-167 C93S): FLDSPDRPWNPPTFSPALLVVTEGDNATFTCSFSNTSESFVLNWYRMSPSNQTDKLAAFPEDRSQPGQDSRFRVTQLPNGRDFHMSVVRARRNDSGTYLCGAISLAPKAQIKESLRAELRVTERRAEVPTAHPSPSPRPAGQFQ
T1 sequence (Q15116 24-167 C93S): as above

Row | Binder | koff [1] [s⁻¹] | Kd [2] [nM] | koff [2] [s⁻¹] | kon [2] [M⁻¹ s⁻¹] | Kd [3] [nM] | koff [3] [s⁻¹] | kon [3] [M⁻¹ s⁻¹] | fold increase in affinity against the wild type [4] [fold]
1 | toripalimab Fab (wild-type) (Fab, V domains shown, toripalimab Fab heavy chain (VH-CH1); toripalimab Fab light chain (VL-CL); Residue numbers count consecutively from residue 1 of each chain; also called anti-hPD-1 antibody toripalimab; source: Brevibacillus, secreted into culture supernatant, ammonium sulfate precipitate (not further purified); not shown: 6xHis, C-terminal, kept; 6xHN, C-terminal, kept) VH: QGQLVQSGAEVKKPGASVKVSCKASGYTFTDYEMHWVRQAPIHGLEWIGVIESETGGTAYNQKFKGRVTITADKSTSTAYMELSSLRSEDTAVYYCAREGITTVATTYYWYFDVWGQGTTVTVSS VL: DVVMTQSPLSLPVTLGQPASISCRSSQSIVHSNGNTYLEWYLQKPGQSPQLLIYKVSNRFSGVPDRFSGSGSGTDFTLKISRVEAEDVGVYYCFQGSHVPLTFGQGTKLEIK | < 1e-05 |  |  |  |  |  |  | 
2 | toripalimab Fab H.E54A (Fab, V domains shown, heavy chain of Sm3 with this change; numbers count from the chain's first residue; as the light chain of Sm3; source: Brevibacillus, culture supernatant (ammonium sulfate precipitate); not shown: 6xHis, C-terminal, kept; 6xHN, C-terminal, kept) VH: QGQLVQSGAEVKKPGASVKVSCKASGYTFTDYEMHWVRQAPIHGLEWIGVIESATGGTAYNQKFKGRVTITADKSTSTAYMELSSLRSEDTAVYYCAREGITTVATTYYWYFDVWGQGTTVTVSS VL: DVVMTQSPLSLPVTLGQPASISCRSSQSIVHSNGNTYLEWYLQKPGQSPQLLIYKVSNRFSGVPDRFSGSGSGTDFTLKISRVEAEDVGVYYCFQGSHVPLTFGQGTKLEIK |  | 202 | 0.00772 | 38300 | 1.23 | 2.52e-05 | 20400 | 
3 | toripalimab Fab L.V99G (Fab, V domains shown, as the heavy chain of m1; as the light chain of m1, with the stated change; source: Brevibacillus, secreted into culture supernatant, ammonium sulfate precipitate (not further purified); not shown: 6xHis, C-terminal, kept; 6xHN, C-terminal, kept) VH: QGQLVQSGAEVKKPGASVKVSCKASGYTFTDYEMHWVRQAPIHGLEWIGVIESETGGTAYNQKFKGRVTITADKSTSTAYMELSSLRSEDTAVYYCAREGITTVATTYYWYFDVWGQGTTVTVSS VL: DVVMTQSPLSLPVTLGQPASISCRSSQSIVHSNGNTYLEWYLQKPGQSPQLLIYKVSNRFSGVPDRFSGSGSGTDFTLKISRVEAEDVGVYYCFQGSHGPLTFGQGTKLEIK |  |  |  |  |  |  |  | > 100
4 | toripalimab Fab L.L101Y (Fab, V domains shown, as the heavy chain of Sm3; light chain of Sm3 with this change; numbers count from the chain's first residue; source: Brevibacillus, culture supernatant (ammonium sulfate precipitate); not shown: 6xHis, C-terminal, kept; 6xHN, C-terminal, kept) VH: QGQLVQSGAEVKKPGASVKVSCKASGYTFTDYEMHWVRQAPIHGLEWIGVIESETGGTAYNQKFKGRVTITADKSTSTAYMELSSLRSEDTAVYYCAREGITTVATTYYWYFDVWGQGTTVTVSS VL: DVVMTQSPLSLPVTLGQPASISCRSSQSIVHSNGNTYLEWYLQKPGQSPQLLIYKVSNRFSGVPDRFSGSGSGTDFTLKISRVEAEDVGVYYCFQGSHVPYTFGQGTKLEIK |  | 125 | 0.00356 | 28400 | < 1.18 | < 1e-05 | 8500 | 
5 | toripalimab Fab L.L101S (Fab, V domains shown, as the heavy chain of Sm3; light chain of Sm3 with this change; numbers count from the chain's first residue; source: Brevibacillus, culture supernatant (ammonium sulfate precipitate); not shown: 6xHis, C-terminal, kept; 6xHN, C-terminal, kept) VH: QGQLVQSGAEVKKPGASVKVSCKASGYTFTDYEMHWVRQAPIHGLEWIGVIESETGGTAYNQKFKGRVTITADKSTSTAYMELSSLRSEDTAVYYCAREGITTVATTYYWYFDVWGQGTTVTVSS VL: DVVMTQSPLSLPVTLGQPASISCRSSQSIVHSNGNTYLEWYLQKPGQSPQLLIYKVSNRFSGVPDRFSGSGSGTDFTLKISRVEAEDVGVYYCFQGSHVPSTFGQGTKLEIK |  | 48.2 | 0.000659 | 13700 | 4.13 | 2.42e-05 | 5870 | 
6 | toripalimab Fab L.T102A (Fab, V domains shown, as the heavy chain of Sm3; light chain of Sm3 with this change; numbers count from the chain's first residue; source: Brevibacillus, culture supernatant (ammonium sulfate precipitate); not shown: 6xHis, C-terminal, kept; 6xHN, C-terminal, kept) VH: QGQLVQSGAEVKKPGASVKVSCKASGYTFTDYEMHWVRQAPIHGLEWIGVIESETGGTAYNQKFKGRVTITADKSTSTAYMELSSLRSEDTAVYYCAREGITTVATTYYWYFDVWGQGTTVTVSS VL: DVVMTQSPLSLPVTLGQPASISCRSSQSIVHSNGNTYLEWYLQKPGQSPQLLIYKVSNRFSGVPDRFSGSGSGTDFTLKISRVEAEDVGVYYCFQGSHVPLAFGQGTKLEIK |  | 115 | 0.00395 | 34200 | < 0.809 | < 1e-05 | 12400 | 
7 | toripalimab Fab L.L101V (Fab, V domains shown, as the heavy chain of Sm3; light chain of Sm3 with this change; numbers count from the chain's first residue; source: Brevibacillus, culture supernatant (ammonium sulfate precipitate); not shown: 6xHis, C-terminal, kept; 6xHN, C-terminal, kept) VH: QGQLVQSGAEVKKPGASVKVSCKASGYTFTDYEMHWVRQAPIHGLEWIGVIESETGGTAYNQKFKGRVTITADKSTSTAYMELSSLRSEDTAVYYCAREGITTVATTYYWYFDVWGQGTTVTVSS VL: DVVMTQSPLSLPVTLGQPASISCRSSQSIVHSNGNTYLEWYLQKPGQSPQLLIYKVSNRFSGVPDRFSGSGSGTDFTLKISRVEAEDVGVYYCFQGSHVPVTFGQGTKLEIK |  | 90.5 | 0.00146 | 16100 | 2.41 | 1.35e-05 | 5600 | 
8 | toripalimab Fab L.T102Y (Fab, V domains shown, as the heavy chain of Sm3; light chain of Sm3 with this change; numbers count from the chain's first residue; source: Brevibacillus, culture supernatant (ammonium sulfate precipitate); not shown: 6xHis, C-terminal, kept; 6xHN, C-terminal, kept) VH: QGQLVQSGAEVKKPGASVKVSCKASGYTFTDYEMHWVRQAPIHGLEWIGVIESETGGTAYNQKFKGRVTITADKSTSTAYMELSSLRSEDTAVYYCAREGITTVATTYYWYFDVWGQGTTVTVSS VL: DVVMTQSPLSLPVTLGQPASISCRSSQSIVHSNGNTYLEWYLQKPGQSPQLLIYKVSNRFSGVPDRFSGSGSGTDFTLKISRVEAEDVGVYYCFQGSHVPLYFGQGTKLEIK |  | 78.4 | 0.00282 | 36000 | < 0.441 | < 1e-05 | 22700 | 
9 | toripalimab Fab L.L101T (Fab, V domains shown, as the heavy chain of Sm3; light chain of Sm3 with this change; numbers count from the chain's first residue; source: Brevibacillus, culture supernatant (ammonium sulfate precipitate); not shown: 6xHis, C-terminal, kept; 6xHN, C-terminal, kept) VH: QGQLVQSGAEVKKPGASVKVSCKASGYTFTDYEMHWVRQAPIHGLEWIGVIESETGGTAYNQKFKGRVTITADKSTSTAYMELSSLRSEDTAVYYCAREGITTVATTYYWYFDVWGQGTTVTVSS VL: DVVMTQSPLSLPVTLGQPASISCRSSQSIVHSNGNTYLEWYLQKPGQSPQLLIYKVSNRFSGVPDRFSGSGSGTDFTLKISRVEAEDVGVYYCFQGSHVPTTFGQGTKLEIK |  | 116 | 0.00235 | 20400 | 5.05 | 3.03e-05 | 6000 | 
10 | toripalimab Fab L.P100H (Fab, V domains shown, as the heavy chain of m1; as the light chain of m1, with the stated change; source: Brevibacillus, secreted into culture supernatant, ammonium sulfate precipitate (not further purified); not shown: 6xHis, C-terminal, kept; 6xHN, C-terminal, kept) VH: QGQLVQSGAEVKKPGASVKVSCKASGYTFTDYEMHWVRQAPIHGLEWIGVIESETGGTAYNQKFKGRVTITADKSTSTAYMELSSLRSEDTAVYYCAREGITTVATTYYWYFDVWGQGTTVTVSS VL: DVVMTQSPLSLPVTLGQPASISCRSSQSIVHSNGNTYLEWYLQKPGQSPQLLIYKVSNRFSGVPDRFSGSGSGTDFTLKISRVEAEDVGVYYCFQGSHVHLTFGQGTKLEIK |  |  |  |  |  |  |  | > 100
